Results published in patent US9212226B2, “Amino acid sequences directed against CXCR4 and other GPCRs and compounds comprising the same” (Ablynx N.V., priority 2008, dated 2015).
Marks after values point to notes of the source that are not given here.

How the values were obtained:
CXCR4 [1] = molecular target: T1, CXCR4 (Homo sapiens, UniProt P61073); test: [125I]-238D2 competition binding on membranes from HEK293T cells transiently expressing CXCR4; settings: for displacement of [125I]-238D2 from CXCR4: [125I]-238D2 3 nM; for Displacem. (%) of [125I]-238D2 at 0.5 μM: at highest test concentration of 0.5 μM (footnote a: no significant displacement; b: maximum not reached)
Method: (§1) HEK293T cells were maintained at 37° C. in a humidified 5% CO2, 95% air atmosphere in Dulbecco's modified Eagle's medium (DMEM) containing 2 mM L-glutamine, 50 IU/ml penicillin, 50 μg/ml streptomycin, and 10% (v/v) fetal calf serum. Jurkat cells were cultured in a humidified 5% CO2, 95% air atmosphere in a 1:1 mixture of Dulbecco's modified Eagle's medium (DMEM) and Ham's F12 medium containing 2 mM L-glutamine, 50 IU/ml penicillin, 50 μg/ml streptomycin, and 10% (v/v) fetal calf serum. […] [^125 I]-Labelling— Radiolabeling of Nanobodies with ^125I was performed using the Iodo-gen method (Pierce, Rockford, Ill.) according to the manufacturer's protocol. ^125I-labeled Nanobodies was separated from free iodine (>99%) using a Sephadex G-25 gel filtration column (Amersham Biosciences, Piscataway, N.J.). […] Competition Binding Assays— Membranes from HEK293T cells transiently expressing CXCR3 or CXCR4 were prepared 48 h after transfection as follows. Cells were washed and scraped from the cell culture dishes with ice-cold PBS containing 1 mm EDTA. The scraped cells were pelleted at 1500×g for 10 min at 4° C. The pellet was washed and then resuspended in ice-cold membrane buffer (15 mM Tris, pH 7.5, 1 mM EGTA, 0.3 mM EDTA, and 2 mM MgCl2). The cell suspension was homogenized by 10 strokes at 1200 rpm using a Teflon-glass homogenizer and rotor and further subjected to three freeze-thaw cycles using liquid nitrogen. Membranes were separated by centrifugation at 40,000 g for 25 min at 4° C. The membrane pellet was washed and resuspended in ice-cold Tris-sucrose buffer (20 mM Tris, pH 7.4, and 250 mM sucrose) and frozen in liquid nitrogen. The total protein was determined using a Bradford assay (Bio-Rad). […] Membranes were then harvested over polyethylenimine (0.5%)-treated Whatman GF/C filter plates and washed three times with ice cold binding buffer containing 500 mM NaCl. Plates were counted by liquid scintillation. Inositol Phosphate Accumulation Assay— 24 hours post transfection with pcDNA3.1-CXCR4 and pcDNA1-HA-mG {alpha} qi5 (see Verzijl et al, 2008 supra), 250.000 cells were seeded into 24-wells plates and labelled overnight using inositol-free minimal essential medium supplemented with 1 μCi myo-[2-^3H]-inositol. The next day, the cells were washed once to remove not incorporated myo-[2-^3H]-inositol. […] In agonist experiments, the cells were directly stimulated with test compounds and LiCl (10 mM) in assay buffer for 2 h at 37° C. The stimulation was stopped by aspirating the stimulation medium and adding ice-cold 10 mM formic acid. The accumulated inositol phosphates were isolated by anion exchange chromatography and counted by liquid scintillation. CRE Reporter Gene Assay— HEK239T cells were transfected with pCRE/β-galactosidase (Chen W, Shields T S, Stork P J S, Cone R D (1995) Anal Biochem 226:349-354) and plasmids (pcDEF3 or pcDNA3.1) encoding the indicated receptors. 40,000 transfected cells per well were seeded into 96 well plates and grown in DMEM supplemented with 10% fetal calf serum. The medium was replaced 32 h after transfection by serum-free DMEM supplemented with 0.5% bovine serum albumin and ligands as indicated. […] The β-galactosidase activity was determined by the measurement of absorption at 420 nm with a PowerwaveX340 plate reader (Bio-Tek Instruments Inc., Winooski, Vt.) after incubation with the assay buffer when the OD420 value for forskolin (3 μM) controls reached 0.4-0.6. Chemotaxis Assay— The chemotactic responsiveness of Jurkat 3D cells was assessed using ChemoTx™ plates (Receptor Technologies Ltd., Oxon, UK) in which a upper cell-containing compartment is separated from a lower chemoattractant-containing compartment by a polyvinylpyrollidone-free polycarbonate filter with 5-μm pores. Cells were harvested, washed and resuspended in RPMI containing 0.5% bovine serum albumin and then loaded to 150,000 cells per well in a volume of 25 μl into the upper compartment of the chemotaxis chamber.

CXCR4 [2] = molecular target: T1, CXCR4; test: [125I]-CXCL12 competition binding on membranes from HEK293T cells transiently expressing CXCR4; settings: for Displacem. (%) of [125I]-CXCL12 at 0.5 μM: at highest test concentration of 0.5 μM (footnote a: no significant displacement); for displacement of specifically bound [125I]-CXCL12: purified ligands, highest Nanobody test concentration 0.5 μM; for Binding (binding efficiency, competition binding with [125I]-CXCL12): screening of Nanobody clone pools; for Binding (binding efficiency, competition binding with [125I]-CXCL12) / Displacem. (%) of [125I]-CXCL12 (maximal displacement), bivalent Nanobodies / pKi, [125I]-CXCL12, bivalent Nanobodies: membranes from HEK293T cells transiently expressing CXCR4; for Displacem. (%) of [125I]-CXCL12 (maximal displacement), bivalent Nanobodies / pKi, [125I]-CXCL12, bivalent Nanobodies: mean ± S.E.M.; for Rel. potency, relative to monovalent 238D2: [125I]-CXCL12 displacement, potency relative to those of monovalent 238D2
Method: as §1

CXCR4 [3] = molecular target: T1, CXCR4; test: [125I]-238D4 competition binding on membranes from HEK293T cells transiently expressing CXCR4; settings: for displacement of [125I]-238D4 from CXCR4: [125I]-238D4 3 nM; for Displacem. (%) of [125I]-238D4 at 0.5 μM: at highest test concentration of 0.5 μM (footnote a: no significant displacement; b: maximum not reached)
Method: as §1

T1 sequence (P61073 whole entry): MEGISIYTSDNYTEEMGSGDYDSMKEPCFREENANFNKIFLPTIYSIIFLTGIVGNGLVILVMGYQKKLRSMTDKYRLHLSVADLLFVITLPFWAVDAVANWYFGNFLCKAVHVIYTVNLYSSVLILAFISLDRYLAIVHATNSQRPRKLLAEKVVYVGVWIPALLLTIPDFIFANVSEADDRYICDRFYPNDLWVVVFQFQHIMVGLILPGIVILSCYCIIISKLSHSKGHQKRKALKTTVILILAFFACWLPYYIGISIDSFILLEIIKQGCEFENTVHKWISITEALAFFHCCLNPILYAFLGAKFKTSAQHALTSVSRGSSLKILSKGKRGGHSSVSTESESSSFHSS

Molecule | displacement of [125I]-238D2 from CXCR4 (CXCR4 [1]) | Displacem. (%) of [125I]-238D2 at 0.5 μM (CXCR4 [1]) | Displacem. (%) of [125I]-CXCL12 at 0.5 μM (CXCR4 [2]) | displacement of specifically bound [125I]-CXCL12 (CXCR4 [2]) | Binding (binding efficiency, competition binding with [125I]-CXCL12) (CXCR4 [2]) | displacement of [125I]-238D4 from CXCR4 (CXCR4 [3]) | Displacem. (%) of [125I]-238D4 at 0.5 μM (CXCR4 [3]) | affinity to CXCR4 (CXCR4 [2]; in words) | Displacem. (%) of [125I]-CXCL12 (maximal displacement), bivalent Nanobodies (CXCR4 [2]) [%] | Rel. potency, relative to monovalent 238D2 (CXCR4 [2]) | pKi, [125I]-CXCL12, bivalent Nanobodies (CXCR4 [2]) | Displacem. (%) of [125I]-CXCL12 at 0.5 μM, bivalent Nanobodies (CXCR4 [2]; maximum not reached at the highest test concentration of 0.5 μM, displacement at 0.5 μM)
237A6: Nanobody (VHH) raised against human CXCR4, SEQ ID NO: 248 (protein, Nanobody, Nanobody constructs or fragments thereof) VHH: EVQLVESGGGLVQAGGSLRLSCAASGSIFSLNAMGWYRQAPGKQRELVAGITSSTSTYYADSVKGRFTISRDNTKNTVYLQMNSLKPEDTAVYYCNVDCPDYYSDYECPLEDRGQGTQVTVSS | unable to inhibit | 0^a % | 0^a % | unable to displace | + (+ = 30-69%) | unable to inhibit | 0^a % |  |  |  |  | 
237D1: Nanobody (VHH) raised against human CXCR4, SEQ ID NO: 249 (protein, Nanobody, Nanobody constructs or fragments thereof) VHH: EVQLVESGGGLAQPGGPLRLTCEASGVIYSVNDMGWYRQAPGKQRELVAVITSGGGTNYVDSVKGRFTISGDNRKKTVYLQMNSLKPEDTAVYYCSIYYSSGISTLRSWGQGTQVTVSS | unable to inhibit | 0^a % | 0^a % | unable to displace | + (+ = 30-69%) | unable to inhibit | 0^a % |  |  |  |  | 
237D2: Nanobody (VHH) raised against human CXCR4, SEQ ID NO: 241 (protein, Nanobody, Nanobody constructs or fragments thereof) VHH: EVQLVESGGGLVQPGGSLRLSCAASGFTFDDYAMSWVRQAPGKGLEWVSAISWNGGSTDYADSVKGRFTISRDNAKNTLYLQMNSLKSEDTAEYYCARDQGPFYSGTYYYTRQYGYRGQGTQVTVSS | unable to inhibit | 0^a % | 0^a % | unable to displace |  | unable to inhibit | 0^a % |  |  |  |  | 
237G7: Nanobody (VHH) raised against human CXCR4, SEQ ID NO: 251 (protein, Nanobody, Nanobody constructs or fragments thereof) VHH: EVQLVESGGGLVQPGGSLRLSCAASSFIGNYHAIVWLRQAPGKELEGVSCITSRDSITYYASFVKGRFTISRDDAKNTVYLQMNNLKPEDTAVYYCAVBTSMTCPTLIVRFNYRGQGTQVTVSS | unable to inhibit | 0^a % | 0^a % | unable to displace | + (+ = 30-69%) | unable to inhibit | 0^a % |  |  |  |  | 
238B10: Nanobody (VHH) raised against human CXCR4, SEQ ID NO: 242 (protein, Nanobody, Nanobody constructs or fragments thereof) VHH: EVQLVESGGGFVQAGGSLRLSCETSGRPLLGYTIAWFRQVPGKEREFVAYHRWSDGANLYADSVKGRFTISGHNAKNTVSLQMNSLKPEDTAVYYCAAARMTTSNDKEYLYWGQGTQVTVSS |  |  |  |  |  |  |  | inactive |  |  |  | 
238D4-20GS-238D4: bivalent Nanobody, 238D4 linked to 238D4 by a 20 amino acid GGGGS linker (protein, Nanobody, Nanobody constructs or fragments thereof, bivalent Nanobody, 238D4 linked to 238D4 by a 20 amino acid GGGGS linker) EVQLMESGGGLVQAGGSLRLSCAASGRTFNNYAMGWFRRAPGKEREFVAAITRSGVRSGVSAIYGDSVKDRFTISRDNAKNTLYLQMNSLKPEDTAVYTCAASAIGSGALRRFEYDYSGQGTQVTVSSGGGGSGGGGSGGGGSGGGGSEVQLMESGGGLVQAGGSLRLSCAASGRTFNNYAMGWFRRAPGKEREFVAAITRSGVRSGVSAIYGDSVKDRFTISRDNAKNTLYLQMNSLKPEDTAVYTCAASAIGSGALRRFEYDYSGQGTQVTVSS |  |  |  |  |  |  |  |  | 96 ± 5 |  |  | 
238D2-10GS-238D2: bivalent Nanobody, 238D2 linked to 238D2 by a 10 amino acid GGGGS linker (protein, Nanobody, Nanobody constructs or fragments thereof, bivalent Nanobody, 238D2 linked to 238D2 by a 10 amino acid GGGGS linker) EVQLVESGGGLVQTGGSLRLSCAASGFTFSSYAMSWVRQAPGKGLEWVSGIKSSGDSTRYAGSVKGRFTISRDNAKNMLYLQMYSLKPEDTAVYYCAKSRVSRTGLYTYDNRGQGTQVTVSSGGGGSGGGGSEVQLVESGGGLVQTGGSLRLSCAASGFTFSSYAMSWVRQAPGKGLEWVSGIKSSGDSTRYAGSVKGRFTISRDNAKNMLYLQMYSLKPEDTAVYYCAKSRVSRTGLYTYDNRGQGTQVTVSS |  |  |  |  |  |  |  |  | 95 ± 5 | 14^a | 9.16 ± 0.08 | 
238D2-20GS-238C5 (protein, Nanobody, Nanobody constructs or fragments thereof) EVQLVESGGGLVQTGGSLRLSCAASGFTFSSYAMSWVRQAPGKGLEWVSGIKSSGDSTRYAGSVKGRFTISRDNAKNMLYLQMYSLKPEDTAVYYCAKSRVSRTGLYTYDNRGQGTQVTVSSGGGGSGGGGSGGGGSGGGGSEVQLMESGGGLVQAGGSLRLACAASGFTFEDYAIGWFRKAPGKEREGVSCISGSDGSTTYADSVKGRFTISTDNAKNTVYLEMNSLKPEDTAVYYCAQQYGVGGRVVCPGPYEYDVWGQGTQVTVSS |  |  |  |  |  |  |  |  | 110 ± 2 | 0.18^a | 7.35 ± 0.07 | 
238D2-20GS-238B10 (protein) EVQLVESGGGLVQTGGSLRLSCAASGFTFSSYAMSWVRQAPGKGLEWVSGIKSSGDSTRYAGSVKGRFTISRDNAKNMLYLQMYSLKPEDTAVYYCAKSRVSRTGLYTYDNRGQGTQVTVSSGGGGSGGGGSGGGGSGGGGSEVQLVESGGGFVQAGGSLRLSCETSGRPLLGYTIAWFRQVPGKEREFVAYHRWSDGANLYADSVKGRFTISGHNAKNTVSLQMNSLKPEDTAVYYCAAARMTTSNDKEYLYWGQGTQVTVSS |  |  |  |  |  |  |  |  |  | <0.1^a | <7.00 | 43 ± 11^c %
